Experimental data taken from the RNAGym collection of RNA variant scans (doi:10.1021/acssynbio.7b00057).

B1: Pistol ribozyme (parent)
chain: GGGUCGUUGUUCCAUAAUCGCGUGGAUAUGGCACGCAAGUUUCUACCGGGCACCGUAAAUGUCCGACUGGAGCCGUUCGGGCGGCUAUAAACAGACCUCAGGCCCGAAGCGUGGCGGCACCUGCCGCCGGUGGUAAAAAAGAUCGGAAGAGCACACGUCU

Variants of: B1
Experiment: aptazyme ON/OFF ratio, guanine; higher = stronger switching; co-transcriptional cleavage with and without guanine

| Variant | aptazyme ON/OFF ratio |
| --- | --- |
| GGGUCGGUGAAAUAUAAUCGCGUGGAUAUGGCACGCAAGUUUCUACCGGGCACCGUAAAUGUCCGACUGGAGCCGUUCGGGCGGCUAUAAACAGACCUCAGGCCCGAAGCGUGGCGGCACCUGCCGCCGGUGGUAAAAAAGAUCGGAAGAGCACACGUCU [U7G U10A U11A C12A C13U] | 1.07 |
| GGGUCGGUGAAAAAUAAUCGCGUGGAUAUGGCACGCAAGUUUCUACCGGGCACCGUAAAUGUCCGACUGGAGCCGUUCGGGCGGCUAUAAACAGACCUCAGGCCCGAAGCGUGGCGGCACCUGCCGCCGGUGGUAAAAAAGAUCGGAAGAGCACACGUCU [U7G U10A U11A C12A C13A] | 1.14 |
| GGGUCGGUGAAAGAUAAUCGCGUGGAUAUGGCACGCAAGUUUCUACCGGGCACCGUAAAUGUCCGACUGGAGCCGUUCGGGCGGCUAUAAACAGACCUCAGGCCCGAAGCGUGGCGGCACCUGCCGCCGGUGGUAAAAAAGAUCGGAAGAGCACACGUCU [U7G U10A U11A C12A C13G] | 1.11 |
| GGGUCGGUGAAUGAUAAUCGCGUGGAUAUGGCACGCAAGUUUCUACCGGGCACCGUAAAUGUCCGACUGGAGCCGUUCGGGCGGCUAUAAACAGACCUCAGGCCCGAAGCGUGGCGGCACCUGCCGCCGGUGGUAAAAAAGAUCGGAAGAGCACACGUCU [U7G U10A U11A C12U C13G] | 1.13 |
| GGGUCGGUGAAUAAUAAUCGCGUGGAUAUGGCACGCAAGUUUCUACCGGGCACCGUAAAUGUCCGACUGGAGCCGUUCGGGCGGCUAUAAACAGACCUCAGGCCCGAAGCGUGGCGGCACCUGCCGCCGGUGGUAAAAAAGAUCGGAAGAGCACACGUCU [U7G U10A U11A C12U C13A] | 1.09 |
| GGGUCGGUGAAUUAUAAUCGCGUGGAUAUGGCACGCAAGUUUCUACCGGGCACCGUAAAUGUCCGACUGGAGCCGUUCGGGCGGCUAUAAACAGACCUCAGGCCCGAAGCGUGGCGGCACCUGCCGCCGGUGGUAAAAAAGAUCGGAAGAGCACACGUCU [U7G U10A U11A C12U C13U] | 1.16 |
| GGGUCGGUGAACGAUAAUCGCGUGGAUAUGGCACGCAAGUUUCUACCGGGCACCGUAAAUGUCCGACUGGAGCCGUUCGGGCGGCUAUAAACAGACCUCAGGCCCGAAGCGUGGCGGCACCUGCCGCCGGUGGUAAAAAAGAUCGGAAGAGCACACGUCU [U7G U10A U11A C13G] | 1.11 |
| GGGUCGGUGAACUAUAAUCGCGUGGAUAUGGCACGCAAGUUUCUACCGGGCACCGUAAAUGUCCGACUGGAGCCGUUCGGGCGGCUAUAAACAGACCUCAGGCCCGAAGCGUGGCGGCACCUGCCGCCGGUGGUAAAAAAGAUCGGAAGAGCACACGUCU [U7G U10A U11A C13U] | 1.11 |
| GGGUCGGUGAACAAUAAUCGCGUGGAUAUGGCACGCAAGUUUCUACCGGGCACCGUAAAUGUCCGACUGGAGCCGUUCGGGCGGCUAUAAACAGACCUCAGGCCCGAAGCGUGGCGGCACCUGCCGCCGGUGGUAAAAAAGAUCGGAAGAGCACACGUCU [U7G U10A U11A C13A] | 1.14 |
| GGGUCGGUGAGCCAUAAUCGCGUGGAUAUGGCACGCAAGUUUCUACCGGGCACCGUAAAUGUCCGACUGGAGCCGUUCGGGCGGCUAUAAACAGACCUCAGGCCCGAAGCGUGGCGGCACCUGCCGCCGGUGGUAAAAAAGAUCGGAAGAGCACACGUCU [U7G U10A U11G] | 1.71 |
| GGGUCGGUGACCCAUAAUCGCGUGGAUAUGGCACGCAAGUUUCUACCGGGCACCGUAAAUGUCCGACUGGAGCCGUUCGGGCGGCUAUAAACAGACCUCAGGCCCGAAGCGUGGCGGCACCUGCCGCCGGUGGUAAAAAAGAUCGGAAGAGCACACGUCU [U7G U10A U11C] | 1 |
| GGGUCGGUGAGACAUAAUCGCGUGGAUAUGGCACGCAAGUUUCUACCGGGCACCGUAAAUGUCCGACUGGAGCCGUUCGGGCGGCUAUAAACAGACCUCAGGCCCGAAGCGUGGCGGCACCUGCCGCCGGUGGUAAAAAAGAUCGGAAGAGCACACGUCU [U7G U10A U11G C12A] | 1.13 |
| GGGUCGGUGAGGCAUAAUCGCGUGGAUAUGGCACGCAAGUUUCUACCGGGCACCGUAAAUGUCCGACUGGAGCCGUUCGGGCGGCUAUAAACAGACCUCAGGCCCGAAGCGUGGCGGCACCUGCCGCCGGUGGUAAAAAAGAUCGGAAGAGCACACGUCU [U7G U10A U11G C12G] | 1.21 |
| GGGUCGGUGAAUCAUAAUCGCGUGGAUAUGGCACGCAAGUUUCUACCGGGCACCGUAAAUGUCCGACUGGAGCCGUUCGGGCGGCUAUAAACAGACCUCAGGCCCGAAGCGUGGCGGCACCUGCCGCCGGUGGUAAAAAAGAUCGGAAGAGCACACGUCU [U7G U10A U11A C12U] | 1.16 |
| GGGUCGGUGAAGCAUAAUCGCGUGGAUAUGGCACGCAAGUUUCUACCGGGCACCGUAAAUGUCCGACUGGAGCCGUUCGGGCGGCUAUAAACAGACCUCAGGCCCGAAGCGUGGCGGCACCUGCCGCCGGUGGUAAAAAAGAUCGGAAGAGCACACGUCU [U7G U10A U11A C12G] | 1.1 |
| GGGUCGGUGAGAAAUAAUCGCGUGGAUAUGGCACGCAAGUUUCUACCGGGCACCGUAAAUGUCCGACUGGAGCCGUUCGGGCGGCUAUAAACAGACCUCAGGCCCGAAGCGUGGCGGCACCUGCCGCCGGUGGUAAAAAAGAUCGGAAGAGCACACGUCU [U7G U10A U11G C12A C13A] | 1.06 |
| GGGUCGGUGAGAGAUAAUCGCGUGGAUAUGGCACGCAAGUUUCUACCGGGCACCGUAAAUGUCCGACUGGAGCCGUUCGGGCGGCUAUAAACAGACCUCAGGCCCGAAGCGUGGCGGCACCUGCCGCCGGUGGUAAAAAAGAUCGGAAGAGCACACGUCU [U7G U10A U11G C12A C13G] | 1.09 |
| GGGUCGGUGAGAUAUAAUCGCGUGGAUAUGGCACGCAAGUUUCUACCGGGCACCGUAAAUGUCCGACUGGAGCCGUUCGGGCGGCUAUAAACAGACCUCAGGCCCGAAGCGUGGCGGCACCUGCCGCCGGUGGUAAAAAAGAUCGGAAGAGCACACGUCU [U7G U10A U11G C12A C13U] | 1.11 |
